The results in this text go back to patent publication US20040248765.

The subject of this series is Example (8): 1-[3-(D-Alanyl-L-alanyl-L-alanyl-L-leucyl-glycyl-L-leucyl-L-prolylamino)-propylamino]anthraquinone trifluoroacetate.

Chain of human recombinant MMP-9 (chain, as listed by the source): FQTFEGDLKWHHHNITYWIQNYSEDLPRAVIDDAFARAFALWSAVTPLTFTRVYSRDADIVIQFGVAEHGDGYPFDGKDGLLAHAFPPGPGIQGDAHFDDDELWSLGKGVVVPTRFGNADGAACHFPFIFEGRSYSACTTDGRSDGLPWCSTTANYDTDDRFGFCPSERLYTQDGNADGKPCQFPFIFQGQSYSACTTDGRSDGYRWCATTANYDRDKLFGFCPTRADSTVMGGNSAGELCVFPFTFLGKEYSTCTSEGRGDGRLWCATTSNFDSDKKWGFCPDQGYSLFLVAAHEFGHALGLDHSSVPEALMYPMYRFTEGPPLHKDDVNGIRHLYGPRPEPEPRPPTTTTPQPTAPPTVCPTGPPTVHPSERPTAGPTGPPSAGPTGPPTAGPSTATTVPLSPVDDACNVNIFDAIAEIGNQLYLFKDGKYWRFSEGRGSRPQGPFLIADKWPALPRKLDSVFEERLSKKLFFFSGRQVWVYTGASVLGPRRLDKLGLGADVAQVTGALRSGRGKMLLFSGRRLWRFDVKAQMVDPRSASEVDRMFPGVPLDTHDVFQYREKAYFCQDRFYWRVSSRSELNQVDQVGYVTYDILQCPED

For the substance human recombinant MMP-9, the “cleavage of the peptide conjugate by the enzyme, followed by HPLC and MS/MS” value is recorded as “cleavage to anthraquinonyl, spacer-linked tripeptide Example 4”.
